The supplement of paper PMC12764529
± gives the half width of the 95% confidence interval.

Key:
[1] = folding stability dG unfold (combined trypsin and chymotrypsin); higher = more stable
Experimental: (§1)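 Folding stability of de novo designed mini-proteins (<80 aa, no Cys; designed by TrROS, TrMRF, ProteinMPNN and the joint model) was measured by cDNA display proteolysis with trypsin and chymotrypsin. Each protease was used at 11 concentrations in a threefold dilution series plus a no-protease condition. K50 was inferred by Bayesian fitting of sequencing counts, and dG unfold was derived against a sequence-predicted unfolded-state K50 (Tsuboyama et al. method). Sequences shown include variable-length N-terminal GS-type padding (SAGGSAGG...) inside a display construct carrying a PA tag. Rows were kept only if the AF2 dimer inter-PAE was >15, to exclude likely homo-oligomers.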

[2] = folding stability dG unfold from chymotrypsin proteolysis; higher = more stable
Experimental: as §1

Sequence	folding stability dG unfold [1] [kcal/mol]	folding stability dG unfold [2] [kcal/mol]
SAGGSAGGSGMSSTSTTTVEIEKDPSTGKVLKKTVTSPTTTLAPGGEWTTTVSTSTEEISPDLSAGGSAGGS [r12_629_JUSTAS]	-0.237 ± 0.4	-0.101 ± 0.24
SAGPITPEEIQEKVTKAMEEEGMDNVNVDVQRDEDNGRITIQVEVQMPPGNKEKAQRIQDAIQDELGIKSAG [r5_9_TrROS]	0.277 ± 0.099	0.89 ± 0.062
SAGGSAGGSGGTIKLPLYPPEGKEYKGTIPKEKLEAAIAKGEPIKVTLKTKGKEVKEYTIPIKSAGGSAGGS [r12_991_JUSTAS]	-0.983 ± 0.48	-0.582 ± 0.44
SAGGSAGGTIRIPPAARNMMKELQKQGFVIEEIKIDEIERTENGPPWIEIDFEIKKLPPEALKDSAGGSAGG [r6_771_TrROS]	-0.939 ± 0.89	-0.317 ± 0.33
SAGGMTTTVTVTEDPATGTLTVPITIPRLDAEGNPTTEVLTVTLPASPEAEAAIAALAAALGIPAAASAGGS [r8_381_JUSTAS]	0.369 ± 0.1	0.943 ± 0.067
SGMTIEVEKEIEIYDPEKGVKIGSVKVKVLVPTSYSPEEIPEIAEKEIKKAKEELEKPEPPEVNEDGTLKSA [r9_454_JUSTAS]	0.241 ± 0.16	0.751 ± 0.035
SAGGSAGGSASLDPVVVTVTRYPTGVTTTTVSSRPGGEPVTTTTTYDPVSPVAPLPASRLASAGGSAGGSAG [r3_336_JUSTAS]	0.167 ± 0.12	0.59 ± 0.032
SAGRRSLVLLAPVDDPARAPTAEELARELLALGGTPATRPRAEPLEDDTLRVTFEAPGVDVTVLVDLRASAG [r5_144_TrMRF]	0.138 ± 0.11	0.638 ± 0.12
SAGDISPSDPVTVRVEVEKDPNSKSTLVRVDEETPTGRRLERRIPADGPVVVTEREPASGATRVTVEPASAG [r5_55_JUSTAS]	-0.563 ± 0.11	0.00901 ± 0.071
SAGGSAGGMREIEHEIPNPNGRNIKIKIEYDPDQGWHPVEIENPGNGKKKTYPFDSADEVLDQLSAGGSAGG [r6_465_TrROS]	0.0475 ± 0.17	0.598 ± 0.031
SAGGSAEIEPVSSEVDPNSDRTVTTNRIPGSGKTRTVTYDSSNPGVTTVTTYAPGGKPLSTTTLPTSAGGSA [r15_974_JUSTAS]	< -1	-0.474 ± 0.28
SAGGSAGGSAGMVIPSTSPEEAVEKLRELVEKRGDFLVDVKPTEVHPDGTVVIETKKKPLSAGGSAGGSAGG [r17_430_JUSTAS]	-0.269 ± 0.21	0.21 ± 0.09
SAGGSAGGSAGMVTEESLEIEPGKGLIVRTVTDRRESGIVTETEKTPVSEAEREAIRKALSAGGSAGGSAGG [r11_47_JUSTAS]	-0.201 ± 0.11	0.0861 ± 0.056
SAYYKIRWNNGREIELKDMPIEDLEKYFPGGPVEIEPVPPVPVVRIESWEQANDLAEQNPPNHTIIVMDSAG [r14_445_TrROS]	-0.634 ± 0.56	-0.476 ± 0.83
SAGGSAGGSAGMRLLTEEIVVEQFFYETGETRLTVLTKEILVVPPRPVPVPLPEGGLRLLSAGGSAGGSAGG [r11_307_JUSTAS]	0.184 ± 0.13	0.925 ± 0.11
SAGGSAGGSAGGSPFWRIKIENPGNGKEITVMVPPDDIDKAKEEAEQEGLKKIEIEPVPSAGGSAGGSAGGS [r4_102_TrROS]	-0.993 ± 0.7	-0.0872 ± 0.3
SAGGSAGGSAGGSTVTVTSEEEAQEAREALAAERAAAEPGAEPPEAFPVEVEVVPPELRSAGGSAGGSAGGS [r4_498_JUSTAS]	0.0161 ± 0.22	0.633 ± 0.047
SAGPAVAVAPIPALEARPDLKDALVRVVVSPLPDGRVAVDVRPVFVPKPVITPEEARELEELAEKLAASAGG [r19_313_TrMRF]	-0.224 ± 0.13	0.297 ± 0.027
SAGVKIERDPNPGWMEITYPIDNKPIQIEIPMDPNNGQMKVKVEYGDGKPKEYTIPGGSIEEIIEDLFSAGG [r19_159_TrROS]	< -1	0.111 ± 0.23

Sequence	folding stability dG unfold [1] [kcal/mol]	folding stability dG unfold [2] [kcal/mol]
SAGGSAGGSGHHHMTTRTSTSTDPATGSTTVTTTRTTTDGGTVTTTTTLPPPAATTTTSTTTSSAGGSAGGS [r12_1029_JUSTAS]	-0.165 ± 0.11	0.349 ± 0.044
SAGGSAGGSEPRLILTTFPLPEPGEPVLRLLVIGEDRILAVRVVGEKPELRELDRLDDLLAEQSAGGSAGGS [r12_299_TrMRF]	< -1	-0.433 ± 0.46
SAGGSAGGSAGPRRFMFQIPADEVKLEFPGGAKVTDVEEDPDGYRRVMIEIPPGADPELKSAGGSAGGSAGG [r17_48_TrROS]	-0.129 ± 0.2	0.142 ± 0.32
TLSPEEIEAEARARAEAAVAARPDSAADVELDVPVEFPVRTERRDPRSDRWSRSLSTVRLRLRLRLARGAGS [r1_90_JUSTAS]	-0.468 ± 0.24	0.343 ± 0.2
SAGGWVKDPDGQTVEMKVLDPGMNKDNAKPFADNIAEQLHRQHGMNPNNVKVKVETDPENGTVRVKVKSAGG [r13_913_TrROS]	< -1	-0.385 ± 0.39
SAGGSAGGSAGVRIPPGYLVRIKFPGNGEREIPIDTPEIEIPGIENVTIEVYPLKKGEPISAGGSAGGSAGG [r11_43_TrROS]	0.167 ± 0.2	0.553 ± 0.19
SAGGSAGGSAGGGMKLRLVTYSITTTNKVFPSLEEALAAPPDETDGVDEIISSSLKPLLSAGGSAGGSAGGS [r10_729_JUSTAS]	-0.326 ± 0.15	0.21 ± 0.17
SAGGSAGGSAGGMTTKYVITVEVPGENRTETIYLDVPPSRPEEAEALAKEISPNAKIERLSAGGSAGGSAGG [r11_250_JUSTAS]	-0.144 ± 0.29	0.187 ± 0.16
SAGGSALKVKSVHQNPDDNYYMITVTIPGPDKAPREIMFPSPEDLEDKLDNLPPGIESVEIHPMKPSAGGSA [r15_589_TrROS]	< -1	-0.203 ± 0.19
SAGGSAGGSAGGMKVTVEYPDALSVEVEPDSATTTYPNGSRIVVEAPGVTTYDPLPPERSSAGGSAGGSAGG [r7_30_JUSTAS]	-0.39 ± 0.24	0.117 ± 0.046
SAGGKARITRIEAEPDPLRVEVEVELPDGRKVRAVAVVPPGEGGVARVRTAVDFGEGVVPAADIEIPPSAGG [r13_728_TrMRF]	0.236 ± 0.052	0.704 ± 0.016
SAGGTIKPGQPVRIRAEWYNGNKEWTHTHEFPLPENQTLDDVADEILEHLPPEHNKNFKVRIEIEPVSAGGS [r16_321_TrROS]	0.373 ± 0.11	0.904 ± 0.1
SAGGSAGGSQWIEIELPLPNGRNIQIEMWPNNGMVDVEWPDGKEVEFPVETADDALDRVLDALSAGGSAGGS [r12_866_TrROS]	0.0352 ± 0.21	0.552 ± 0.12
SSTPKLEEIERPNARFKVTTYTYPNSVKTTADATFPDGTKGKIEETYTPTPEGVKKTVKKDLPPEVKEKLES [r1_153_JUSTAS]	< -1	0.0664 ± 0.46
SAGGSAGGSAGGMVEVLPVPDGSTLERDPAGYVTRYDPATGTATTVPLADVELSPGSPELSAGGSAGGSAGG [r7_656_JUSTAS]	-0.0715 ± 0.23	0.679 ± 0.11
SKPITADEIAKHFPGIKDVEPTPNKKRLDFDNPNGHKPTIEVSPDGTIMIEHQNPDNGQKQEQEIPIDDLSA [r9_427_TrROS]	0.0598 ± 0.26	0.596 ± 0.056
SAGGSAGGSVEELLAAATSEDPAKGLARAELPSGATATVDPAAGTVTITFTSPGTPSTTTVPAPSAGGSAGG [r6_793_JUSTAS]	< -1	0.33 ± 0.13
SAGGSAGGSFELPVPPNTPVDIEATVTRPDGTPATLVDAEPLGDGTFRVTVRYPDGSTETIEVSAGGSAGGS [r12_31_JUSTAS]	0.464 ± 0.061	0.959 ± 0.038
